These are literature values, as cited in paper PMC6814268.

The target of series [1] is CEACAM1 IgV (Homo sapiens) (UniProt P13688).
In series [2] the target is CEACAM5 IgV (Homo sapiens) (UniProt P06731).

With CEACAM1 IgV (from UniProt P13688), the Kd in series [1] was 450 nM.
For CEACAM5 IgV (from UniProt P06731), in series [2], the Kd was 800 nM.
